System: MS2 coat protein
Assay: apparent KD of MS2 coat protein; designed switch direction (-1 OFF switch, 1 ON switch): -1; higher = weaker reporter binding
Procedure, shortened: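 For each design, the apparent KD is the median over clusters of curves fitted to normalised cluster fluorescence. Clusters held RNA switches with common flanks, transcribed on Illumina chips by stalled E. coli RNA polymerase. These were titrated with SNAP-549-labelled MS2 coat protein, doubling from 0.7 or 1.5 nM to 3 µM, without input, with 200 uM small-molecule ligand, or with an oligonucleotide input.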

[1] = Eterna round: R95, input ligand: microRNA oligo, concentration not stated
[2] = input ligand: microRNA oligo, concentration not stated

Row | Sequence | apparent KD of MS2 coat protein (input ligand: FMN 200 uM) | apparent KD of MS2 coat protein (input ligand: none) | apparent KD of MS2 coat protein [1] | apparent KD of MS2 coat protein [2]
1 | AGCCUCUAAGGAUAUACAUGAGGAUCACCCAUGUACUUAGAAGGGAAACCUUCUAUAUGUAGAAGGUAGAAGCA [Exclusion 3 S1] (Eterna round: R97, puzzle: Exclusion 3) | 16 nM | 12.7 nM | – | –
2 | AGCGAAUGAGGAUAUUAUCUCACCUACAUGAGGAUCACCCAUGUGGUCGCACCUGGCGAGUGAGAAGGCAUUCGGA [Eternabot (Original) Solution 41] (Eterna round: R97, puzzle: Exclusion 5) | 112 nM | 49.8 nM | – | –
3 | AGCGAGGCAGGAUAUACAUGAGGAUCACCCAUGUACUUGUAUGGCGUGGAACAUCGUGGUAGAAGGGCCGUGCC [EX3 #80] (Eterna round: R97, puzzle: Exclusion 3) | 92.7 nM | 68.9 nM | – | –
4 | AGCGCGUUCUAGGAUAUCCGGUGGGACACAUACGGAGAAGGAGAAACAUGAGGAUCACCCAUGUAUGGAGAUCG [Eternabot (L1) Solution 7] (Eterna round: R97, puzzle: Exclusion 6) | 309 nM | 102 nM | – | –
5 | AGCGGCCGAGGAUAUACAAUCCUCCUGGCAGCCUGUCUGCCACAUGAGGAUCACCCAUGUAGAAGGCGGACCGC [Xelezabi] (puzzle: Exclusion 2) | – | – | 128 nM | –
6 | AGCGGGUUAGGAUAUACCUGGGUAUGAAAAGCCUAACCUCGACAUGAGGAUCACCCAUGUAGAAGGAGCUCGGC [Eternabot (Original) Solution 3] (Eterna round: R97, puzzle: Exclusion 2) | 91 nM | 36.9 nM | – | –
7 | AGCGUGGAGACAGGAUAUGAGAAUAGAUAGAACUCAGAAGGGUCACAUGAGGAUCACCCAUGUAAAGUCUUGAGGCUGAGUGGU [Prohibition 6 - Jieux - Exclusion NG 1] (Eterna round: R96, puzzle: Exclusion NG 1) | 153 nM | 45.2 nM | – | 36.4 nM
8 | AGCUAGAUAGGAUAUGCCCGGGAUAACAUGAGGAUCACCCAUGUGACCGAAUCAUGUCCAGCAGAAGGGUUUGGGA [Mod of ViennaUCT 9 - Jieux - Exclusion 5] (Eterna round: R97, puzzle: Exclusion 5) | 34.7 nM | 23.3 nM | – | –
9 | AGCUAGAUAGGAUAUGCCCGGGAUAACAUGAGGAUCACCCAUGUGACCGAUUCAUGUCCAGCAGAAGGGUUUGGGA [Mod of ViennaUCT 8 - Jieux - Exclusion 5] (Eterna round: R97, puzzle: Exclusion 5) | 17.1 nM | 16.7 nM | – | –
10 | AGCUAGUCAGGAUAUUCUAAAAAUUACAUGAGGAUCACCCAUGUGAAUGGACAAGGGUGUGAAGAAGGGACUAGCG [Omei Ex5 A11] (Eterna round: R97, puzzle: Exclusion 5) | 214 nM | 540 nM | – | –
11 | AGCUAGUCAGGAUAUUCUAAUAAUUACAUGAGGAUCACCCAUGUGAAGAGACAAGGGUGUGAAGAAGGGACUAGCG [Omei Ex5 A1] (Eterna round: R97, puzzle: Exclusion 5) | 188 nM | 600 nM | – | –
12 | AGCUAGUCAGGAUAUUCUAAUAAUUACAUGAGGAUCACCCAUGUGAAUAGACAAGGGUGUGAAGAAGGGACUAGCG [Omei Ex5 A5] (Eterna round: R97, puzzle: Exclusion 5) | 58.3 nM | 366 nM | – | –
13 | AGCUAGUCAGGAUAUUCUAUUAAUUACAUGAGGAUCACCCAUGUGAAUGGACAAGGGUGUGAAGAAGGGACUAGCG [Omei Ex5 A13] (Eterna round: R97, puzzle: Exclusion 5) | 394 nM | 2080 nM | – | –
14 | AGCUCAAAAGUGAGGAUAUCUAGGGUCAAAUGACCGGAGAAGGCACAUGAGGAUCACCCAUGUAACGCCAUGGA [Ceinveusar] (puzzle: Brourd's mod of Exclusion 4) | – | – | 12.5 nM | –
15 | AGCUCUGCAGGAUAUGCCCGGGAUAACAUGAGGAUCACCCAUGUGACUGAUUGUUAUUCUGCAGAAGGGCAUGGGA [JL-EX5-4.15 ViennaUCT mod] (Eterna round: R97, puzzle: Exclusion 5) | 409 nM | 637 nM | – | –
16 | AGCUGUGAGUGAGGAUAUCUGCUGUUGUCAGUCGGAGAAGGCGCGGACAGAACAUGAGGAUCACCCAUGUGUAUGGGCGGCCUC [Usatia] (Eterna round: R96, puzzle: Exclusion NG 1) | 217 nM | 85.5 nM | – | 43.6 nM

Row | Sequence | apparent KD of MS2 coat protein (input ligand: FMN 200 uM) | apparent KD of MS2 coat protein (input ligand: none) | apparent KD of MS2 coat protein [1] | apparent KD of MS2 coat protein [2]
17 | AGCUGUGGCCGAGGAUAUACACAUGAGGAUCACCCAUGUAGGCGCGGAUACGCGCUAAAAUAAUUGUAGAAGGCGGUCUCAGCA [Eli eng2 - 054] (Eterna round: R96, puzzle: Exclusion NG 2) | 3.88 nM | 10.6 nM | – | 5.92 nM
18 | AGCUGUGGCCGAGGAUAUACACAUGAGGAUCACCCAUGUAGGUGCGGAUACUCGCACCAAUAAGUGUAGAAGGCGGUCUCAGCA [Eli eng2 - 057] (Eterna round: R96, puzzle: Exclusion NG 2) | 14.6 nM | 19.2 nM | – | 13.2 nM
19 | AGCUGUGGCCGAGGAUAUCACAUGAGGAUCACCCAUGUACAUGAUUAAGCCUGGUAACAGGCUCAUGAGAAGGCGGUCUCAGCA [Eli eng2 - 014] (Eterna round: R96, puzzle: Exclusion NG 2) | 12 nM | 20.6 nM | – | 13.1 nM
20 | AGCUGUGGCCGAGGAUAUCCACAUGAGGAUCACCCAUGUGAAUAGGGAAUUAACCCAUAACCGUGGGAGAAGGCGGUCUCAGCA [Eli eng2 - 049] (Eterna round: R96, puzzle: Exclusion NG 2) | 55.1 nM | 82.1 nM | – | 48.6 nM
21 | AGCUGUGGCCGAGGAUAUCCAGCCUUAAAUACCGACGUAUAGUCGGACAUGAGGAUCACCCAUGUGGAGAAGGUGGUCUCAGCA [Eli eng2 - 041] (Eterna round: R96, puzzle: Exclusion NG 2) | 93.1 nM | 42.7 nM | – | 41.8 nM
22 | AGCUGUGGCCGAGGAUAUCUAAAACUCAAAACCGAAAUAUAAUCGGACAUGAGGAUCACCCAUGUAGAGAAGGCGGUCUCAGCA [Eli eng2 - 078] (Eterna round: R96, puzzle: Exclusion NG 2) | – | – | – | 59.4 nM
23 | AGCUGUGGCCGAGGAUAUCUAACAAUCCUAACCGAAAUAUAAUCGGACAUGAGGAUCACCCAUGUAGAGAAGGCGGUCUCAGCA [Eli eng2 - 074] (Eterna round: R96, puzzle: Exclusion NG 2) | – | – | – | 68.1 nM
24 | AGCUGUGGCCGAGGAUAUCUAAUAAUCUCAACCGAAAUAUAAUCGGACAUGAGGAUCACCCAUGUAGAGAAGGCGGUCUCAGCA [Eli eng2 - 067] (Eterna round: R96, puzzle: Exclusion NG 2) | – | – | – | 27.2 nM
25 | AGCUGUGGCCGAGGAUAUCUAGCUUCAAUAACCGAAAUAUAAUCGGACAUGAGGAUCACCCAUGUAGAGAAGGCGGUCUCAGCA [Eli eng2 - 084] (Eterna round: R96, puzzle: Exclusion NG 2) | – | – | – | 22.3 nM
26 | AGCUGUGGCCGAGGAUAUCUAUCUUCAAUAACCGAAAUAUAAUCGGACAUGAGGAUCACCCAUGUAGAGAAGGCGGUCUCAGCA [Eli eng2 - 091] (Eterna round: R96, puzzle: Exclusion NG 2) | – | – | – | 27.3 nM
27 | AGCUGUGGCCGAGGAUAUCUCAUAGUCCCAACCGAAAUAUAAUCGGACAUGAGGAUCACCCAUGUAGAGAAGGCGGUCUCAGCA [Eli eng2 - 071] (Eterna round: R96, puzzle: Exclusion NG 2) | 115 nM | 151 nM | – | 40.7 nM
28 | AGCUGUGGCCGAGGAUAUCUGAACUUUCAAACCGAAAUAUAAUCGGACAUGAGGAUCACCCAUGUAGAGAAGGCGGUCUCAGCA [Eli eng2 - 061] (Eterna round: R96, puzzle: Exclusion NG 2) | – | – | – | 10.5 nM
29 | AGCUUUUUGCUCGUCUUAUACAUGAGGAUCACCCAUGUAUUGGACCACAUCGAUAGAUGUGGACCAAGAAGCGUGGU [Omdei Mir OFFv1 C4] (Eterna round: R97, puzzle: Sensor, turn-off variant 1) | 38.6 nM | 39.7 nM | – | –
30 | AGCUUUUUGUUCGUCUUAUACAUGAGGAUCACCCAUGUAUUGGACCGCAUCGAUAGAUGUAGACCGAGAAGCAUGGG [Omdei Mir OFFv1 C6] (Eterna round: R97, puzzle: Sensor, turn-off variant 1) | 63 nM | 55.3 nM | – | –
31 | AGCUUUUUGUUUUUGGGUGACAUGAGGAUCACCCAUGUCUUAUGGGCCCAAUAAUAAUAAAAUAAAAGGGACCCACG [-20.8, -41.27, a 31%] (Eterna round: R97, puzzle: Sensor, turn-off variant 1) | 457 nM | 208 nM | – | –

Reference: the supplement of paper PMC9170038
